Test results: article PMC10952681

Biological target: Rhizobium radiobacter MDC 8606 N-carbamoyl-β-alanine amidohydrolase (Rhizobium radiobacter MDC 8606)
Experiment: SEC; Superdex S200 16/60, 50 mM Tris-HCl pH 8.0, 150 mM NaCl; calibrated column; single major peak at 74.4 mL, apparent molecular weight 90 kDa

Substance: Rhizobium radiobacter MDC 8606 N-carbamoyl-β-alanine amidohydrolase (enzyme)
- stoichiometry N: 2
